# Assay results as given in the domain aggregation screens of Martell et al. (2025).
# Test: soluble fraction after stress (log2 fold change); higher = more stays soluble; pooled small domains, quantitative proteomics
# Settings: stress: pH 4
# Procedure, shortened: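 Pooled custom libraries of small protein domains were stressed at pH 4 and then measured by high-throughput quantitative proteomics. The fold change in the amount of each domain that stays soluble after the acid stress serves as a measure of aggregation propensity. Fold changes are given on a log2 scale, and higher values mean more of the domain stayed soluble.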
row,Sequence,soluble fraction (log2)
1,HMKLSNELLNAIMLIKKGIRNPTSLAQRLNTDTQYAKNLLEHLKMTGLINEHSRLTSRGLDIFHQK,-0.295
2,HMKLTEEEFNAKRKAYLDRLETLNDEAVIKATFMEAASGLGLQKGSAEFGDLRKYFVDRIVDIK,-0.903
3,HMKLTEGETIFLNESDTADWKKIPGIGSVYASRIVKYRNLLGGFVSVNQLREVYGIDDELFAKIYPYI,-0.0375
4,HMKLTESQLHKFTNDAVLAHIRNLIEFKGAFTEDDIEPIIRDRAAVYGIDLEDEDYKKVKTDVEYHFK,-1.53
5,HMKLVELVGSPKQIAWAEDIRKNMISYLSALVRKYEAENRPARAEKRAKDMEILSNIKEASWFIENRS,0.155
6,HMKMAKTIKEIAEEIGVSKQAVFKKIKQVPLSTEIEKFISTVDGKKLVSVDGENLIKQAFQR,0.255
7,HMKMLKAPIPGTIIEVKVNPGQTVNDGDVAVVLEAMKMESDIHFNSSGKVKKIHVNKGDSVQEGDDLIELE,-0.605
8,HMKMNRELNQRQIKMLDYLSVNPKTTRKQYTKMMGISFMTSYRDIQELIDKAYIISKGQGRGTYYILAN,-0.0196
9,HMKMQIGEIIRKYRKSNHMTQEEMAERLGVSAPAVNKWENGNSMPDIMLLAPITRLLGISLDELLSFE,-0.581
10,HMKMSVEEVNLSPRTTNALINNDIKTMKDLVALTDTELRDLKGFGSKAYEEVKEKLSELGLSTQ,-0.546
11,HMKMSVKNEIISLLEKNRDTSISGQVIADSLNVTRAAVWKAIKVLKEEGYNIDGTPNKGYILLGNN,0.0991
12,HMKMTFGENLHKLRKIYRLSQEDVASAINLKRSDIAAVEKGDRVLNDEELDKLADFIGIDIVDLL,-0.853
13,HMKMVSTPTGTRISLTQVKEFISNASFDDMKEILLEVLAWFKAHNLGNPFNYNRAFEFIVAH,-0.302
14,HMKNELNSKLIISIKEALPPQIKVATYLMDLLSLGREAVYRRIRGDVSFDLEELSIISKALNISIDDVL,-2.53
15,HMKNESLMLPRDIDYSRVHGLSNEAIQKLQDALPQSLGQASRIEGITPATLSLLLLYLKKNNKRI,0.0199
16,HMKNHSTFKSVLSNIEFPINERISGHAIQNPILGLIKADHPNFSSDQYIAISELNFYREKYISNYLLTEI,-1.6
17,HMKNKIYGTIVSSTSGEETVYKVFQVDSSKDITYLFRPDMIRLAHENNQALEFNEETGRGKRIEMSDLPK,-0.0332
18,HMKNLHLVPNVVGMSAKEAKNTLKSFNIKYKPIYGSSNKYDENYIFNQNPRKGKTIKEQEVVTIYISRGAD,≥ 0.43
19,HMKNNNIIFSEFLKEVENGRVVEVRIQGNNIQGIMSNGKEFTTYSPNYPNLIEKLTETGVSISAAPL,-0.516
20,HMKNPLIIGMTKDKIIELIGMPDNIKFLDSSLSKSEVWNYDKFGKKLYIKDEKLYQIENIEE,-0.491
21,HMKNSAAKETILAFLKKNGGELFTQMQIIEKFQKMIPAPVLRITLEELLNKGQVEITSKGKYYLSVKGS,-0.903
22,HMKNSKIVIQKRHNHILELLKQNRTMDVTVLAERLGVTGATIRRDLKKLEQEGTIVRSFGKVSFVG,≥ 0.43
23,HMKNTVGEYRKLKSTTILYSNSDLTGTKYTYLPNTTVKILKNISSTVDYVYIKATNRYAYINIYAYT,0.326

row,Sequence,soluble fraction (log2)
1,HMKNVENIILEQLKKNIYDDLNNASFEEIILIDAEKSIYKGTIKANYIEYNFKINLSTGEILKWKLK,-0.763
2,HMKNVSVKMILSPESLGEIQVDLVFSKGKDLEIMLRPETAEVAKLIQSNSASLREQLSLEHKGPLSLNVS,-0.405
3,HMKNYALHEPMMDRIAKVNALYDAGHTIKYMTARGAVSMVDYYDLTKSQLDSWGAKYHELSVGK,0.179
4,HMKNYYEVLGVPRDAAAPDIKRAFRKLAKQFHPDHNPGDAKAEERFKLVSQAYDVLGDEEKRKLYDQFGE,0.254
5,HMKNYYSILGVTPDSSEAEIKSAYRRLARKFHPDVNPDGASRFKDISEAYETLSDAKKRFQYDTINGF,0.234
6,HMKPATSITFIPSERPDLVEQLSKITFDKKDSLYENYINLNWLTFEAISVYMREGDIIGFST,-0.305
7,HMKPDAAKREQLIDIALRLFSQQGIARTSLNAIAREAGVTPAMLHYYFNSREQLLDVMIEERFL,-1.45
8,HMKPDIETQLKKYRYKVSVSKKIKPYMVFSDKTLSELLTKSPTNLKELEDINGFGPVKVQEYGAAILEILK,0.148
9,HMKPDSEFTSQDLWQNDLAGTGSAAYRRDKMGALLGIGYGNAKRFLERLNSYGVTRSEFDEALAQLGE,0.134
10,HMKPEDIALLEEIRDLLKEKKSVIVNLEYVNKDVARRIVDFISGGVFALNGHIQKVSNSIFLVAPMN,-0.26
11,HMKPMNNNDILRRLRYTFDLSDDKMMETFALGGYEANRSEISDWLKKDDHPEQKSLYDKSLSHFLNGFIV,-0.085
12,HMKPPVQVIGKAVVTASSLNVRTGPGTGHGIITSLPRNTEVELLEQQGEWYKIRRGSTVGYVHGGYLKIN,-0.095
13,HMKPRISMITLGVKDLNKSIEFYGGGLGFPRKKTEPEIAIFKLNGSWLSLYNRGLLAEDANVS,0.347
14,HMKPSKYTLAIDSIPVHVTRKQMKSIRLRVTPLGEVRVSAPYGVKDSEIVEMVRSRKLWIESQQRA,-0.0235
15,HMKPSTETLYATARINVRAAADTSAEKLGSIEMGEAVVRTGTDGDWSIIEYNGSTGYVKSEYLTANAGDAT,-0.188
16,HMKPSVEIKVNGGTGAGVVKKGGSITVTANEPAEGKVFTGWQDESGKIVSTQKEYTFTVAEGTTLTAVYED,-0.417
17,HMKPTGWVRGDMGVVDKGQLSITQGTVNVRSGPGLSYEILDQVRRGDRFPVIKSQSGWHNISM,0.361
18,HMKPTSLLGIERYLGSGLIRGVGPSTAKQIVEHFGMETMEVLTEHPERLQEVHGMGRKRWRQIAESFQEQQ,-0.0617
19,HMKPVTVINFVGMTEEKAMTEAEKLGLVVGASSSEYSDEPAGTVIRQSISVSTEAKTGDNIYFTVSKGPE,-0.416
20,HMKQETLNEIGTKIRKLRESKNLSIQEFADKLEMEYNNVIRIEKGRTNFTIGTLVKIANSLEVNLKDI,-1.01
21,HMKQFVVQYYGIDGEVINSVYKNGMSDLTSYEPEKIDGKNFKGWSLSEDSKKVIDENYRINSDVNLYAVYT,0.15
22,HMKQHPTIDLQIGQKLHYKEDVFEVTRFAKDKNGQDMVILKDPSIGSGIEIPWYRSKLEEIIESGQYKIT,-0.113
23,HMKQIEEIIARYTNENTPLMMILSDVQREYGYIPLDVQELISEKTGIPVAEIYGVVTFYSFFSL,-0.337

row,Sequence,soluble fraction (log2)
1,HMKQISQNIHRLRKEKGMSQEQLAQALHVTRQTVSAWERGIAQPSLDVLGQIAQLLGVEPERLLYGE,-0.16
2,HMKQLQIPYSFAKRHGVLLRYEGDQAFIVRRDNTSMLALQEARRLLGHPAHYLLYSEQEFNQLLSASFA,-0.455
3,HMKQLVVVPRVVSLSEGKAREDVGDRGLVVDRVEMDTLRTPYENTVTRQEPAADSRVPVGTRVTLWISPGV,-0.0648
4,HMKQNSDDGEIRKIIIEILDNNLDNVNKYKSGRTNVLDFFVGQVMKQTRGQANPELTRSILTEELSN,0.00746
5,HMKQQTRAELLDEFAKAHAERGLYFNRDYEQGEIQALQPDKAREYLQSALEARTERQQASEQDR,0.266
6,HMKQTDQELAEMLRFRAAQRGLLMSDEVVNYVMTRVERSAKSLIMLLDRIDRAALAQARPVTIPLINEL,-0.606
7,HMKQVEVPRLVGLTLREAQAVLGQVGLRIGLISRAALLASPREQIVEQIPVAGERNIATPYVNLLVNVP,-0.324
8,HMKRDEYIAQLKKYLKRLPKKEYDSAIEYFTEYFDEAGPERELEVIQELGQPKEAAKEMLLQLLNE,-0.506
9,HMKRDNETRRRIVAAAEELFRAKGLDGVNMRELAEMAGVNKGLLHYYFKTKQALFREILVGQMAL,-0.0908
10,HMKRDRLYGITIYLLNHGRTSAKTLAEYFEVSVRTIQRDMDALSMAKIPIIAYPGSDGGYEIQEGYRL,-0.37
11,HMKRDYELPAFIETYLKKNHVAIDTKSAAMIAEHIGADLSRLISELDKVMISLPDDDRRVTPDVVEREI,-0.436
12,HMKREETLKALATKNANYVARSGRRYSFEPMNPYERRIIHTAVQEIEGVTSRSIGSGMDRRVLIEPEGGV,-0.234
13,HMKRELFVEPGMRLEHTPSKTSGPVVSFIEGVIVVIKDQLGSEHRFDPVPGFFRHEGDLVALRSPLL,0.044
14,HMKRIDTILETFAKVHKHIPSKLILLGDGPELLDMRKIARSLHIEDDVLFLGKQDQVSKFYQMADLVLLL,0.15
15,HMKRIHLSDEEKTDLESLHYSSNDGKQRDRIKAVLLRSEGWTVPMISQALRIHETTVTRYLNDYREGKLKN,-0.143
16,HMKRITKKELKQAIVDVFADKPGQSFNYKQLATIIGIKDDPTRRMITDILYELVQEERIVELYRGKFKMEM,-0.335
17,HMKRLPFSFAKRFGVVVEDGEPPIVHHRDGASAETLLEVRRRLGQVFTLQRHDAEAFERLLTQAYQR,-0.837
18,HMKRPEPESPEAERRSQRAADWLVRRDRGLTAAEQDEFLQWLAIDPRHGEWFALHRSVVGEFSA,-1.12
19,HMKRQDFEFLVNLLRQNAGWDFDEEQYFVVDKKISNFIREKGYASVEDLIDELKVGAKPLISQVVESLAL,-2.01
20,HMKRTFGEISPLPSGRYRARYRGPDGERYPAPVTFLSRMDAETWLSAQARKVSSGDWTPPVGVVA,0.195
21,HMKRWHVGDPIDALTAAGKVPSWSTIRQRFWKTIAALYPDIEQSERLQRGLAMLDEAGTSIELHHP,-0.615
22,HMKRYLFEEVLAFLKHNDGKSFNYKQLGAAMEIDNESDRFALLETLEELKHQGFVIETDIGKYAAKE,-0.322
23,HMKSDELTKRRRLQIIEAAERSFRKRGFHATTLREIAAEFGMSVGHIYNYFSGKDAILEALIHQKIDD,-0.429
